From patent US20220324939A1 (Regeneron, published 2022)
Where a chain is given by its changes, count along the chain named.

T1: MAGE-A8 peptide on HLA-A*02:01 (human)
T1 peptide: GLYDGREHSV

T2: MAGE-A4 peptide on HLA-A*02:01 (human)
T2 peptide: GVYDGREHTV

B1: PN45460 (TCR, V domains shown)
V domain 1: GNSVTQMEGPVTLSEEAFLTINCTYTATGYPSLFWYVQYPGEGLQLLLKATKADDKGSNKGFEATYRKETTSFHLEKGSVQVSDSAVYFCALSDTRDDKIIFGKGTRLHILP
V domain 2: EAQVTQSPRYLITVTGKKLTVTCSQNMNHEYMSWYRQDPGLGLRQIYYSMNVEVTDKGDVPEGYKVSRKEKRNFPLILESPSPNQTSLYFCASSPGTGGFSPLHFGNGTRLTVT
notes: full-length chains on transfected CHO cells; also called TCR No. 49
B2: PN45494 (TCR, V domains shown)
V domain 1: B1 V domain 1 with M7I, I100T
V domain 2: DVKVTQSSRYLVKRTGEKVFLECVQDMDHENMFWYRQDPGLGLRLIYFSYDVKMKEKGDIPEGYSVSREKKERFSLILESASTNQTSMYLCASSLQGRYYGYTFGSGTRLTVV
notes: full-length chains on transfected CHO cells; also called TCR No. 50
B3: PN45481 (TCR, V domains shown)
V domain 1: B1 V domain 1
V domain 2: B2 V domain 2
notes: full-length chains on transfected CHO cells; also called TCR No. 54
B4: PN45546 (TCR, V domains shown)
V domain 1: AQTVTQSQPEMSVQEAETVTLSCTYDTSESDYYLFWYKQPPSRQMILVIRQEAYKQQNATENRFSVNFQKAAKSFSLKISDSQLGDAAMYFCAYRSGAGGTSYGKLTFGQGTILTVHP
V domain 2: DAGVTQSPTHLIKTRGQQVTLRCSPISGHKSVSWYQQVLGQGPQFIFQYYEKEERGRGNFPDRFSARQFPNYSSELNVNALLLGDSALYLCASSIRDTYGYTFGSGTRLTVV
notes: full-length chains on transfected CHO cells; also called TCR No. 53

Each binder was assayed against T3, soluble HLA-A2 MAGE-A4 (…) tetramer (human) (assay: flow cytometry, HLA-A2 MAGE-A4 (…) tetramer staining of CHO cells transfected with the TCR).
T3 construct: Bought tetramer reagent; also called MAGE-A4/HLA tetramer reagent; HLA-A02:01 MAGE-A4 tetramer
Experimental: (§1) Samples were then analyzed on an LSRFortessa X-20 (BD Biosciences, San Jose, Calif.). […] However, a more stringent cutoff, such as 3%, could be used to separate out Ag+ TCRs that behave better in the binding assay. Ag+ TCRs were determined by Next Generation Sequencing.

Row | Binder | % tetramer in Ag+ gate (MAGE-A4) [%]
1 | B1 | 34.7
2 | B2 | 3.7
3 | B3 | 87.9
4 | B4 | 74.8

Each binder was assayed against T4, soluble HLA-A2 MAGE-A8 (…) tetramer (human) (assay: flow cytometry, HLA-A2 MAGE-A8 (…) tetramer staining of CHO cells transfected with the TCR).
T4 construct: Bought tetramer reagent; also called MAGE-A8/HLA tetramer reagent; HLA-A02:01 MAGE-A8 tetramer
Experimental: as §1

Row | Binder | % tetramer in Ag+ gate (MAGE-A8) [%]
5 | B1 | 16.7
6 | B2 | 1.88
7 | B3 | 72.9
8 | B4 | 60.6

The binders below were run against T3, soluble HLA-A2 MAGE-A4 (…) tetramer (assay: flow cytometry tetramer staining; % with MAGE-A4 tetramer divided by % with MAGE-A8 tetramer (reference)).
Experimental: as §1

Row | Binder | MAGE-A4/MAGE-A8 (ratio of % tetramer in Ag+ gate)
9 | B1 | 2.08
10 | B2 | 1.97
11 | B3 | 1.21
12 | B4 | 1.23

Biological target: T1, MAGE-A8 peptide on HLA-A*02:01
Assay: multimer staining

Row | Binder | binding result
13 | B1 | recognises
14 | B2 | recognises
15 | B3 | recognises
16 | B4 | recognises

Biological target: T2, MAGE-A4 peptide on HLA-A*02:01
Assay: multimer staining

Row | Binder | binding result
17 | B1 | recognises
18 | B2 | recognises
19 | B3 | recognises
20 | B4 | recognises
